One data set deals with RsaL (Pseudomonas aeruginosa PAO1, UniProt Q9X7H4 1-80). The data set is described as follows: EMSA; RsaL-specific shift; displaced by increasing PhoB (competes at 3 uM). The conditions noted are these: protein: recombinant; tags: C-terminal His (pET-28b); chain copies: 2; label: biotin 3'-end; blunt.
In the next data set the target is PhoB(D54A) (Pseudomonas aeruginosa PAO1, UniProt P23620 1-229, D54A). The data set is described as follows: EMSA. The conditions noted are these: protein: recombinant; tags: C-terminal His (pET-28b); chain copies: 2; label: biotin 3'-end; blunt.
Another data set deals with T1, PhoB (Pseudomonas aeruginosa PAO1, UniProt P23620 1-229).
T1 sequence: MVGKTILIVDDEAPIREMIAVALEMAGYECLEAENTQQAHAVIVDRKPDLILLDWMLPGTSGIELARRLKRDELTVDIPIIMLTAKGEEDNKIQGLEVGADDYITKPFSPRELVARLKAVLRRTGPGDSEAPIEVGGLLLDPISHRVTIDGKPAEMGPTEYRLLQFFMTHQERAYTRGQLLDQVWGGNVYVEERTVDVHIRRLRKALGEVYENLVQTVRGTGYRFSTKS
The data set is described as follows: EMSA. The conditions noted are these: protein: recombinant; tags: C-terminal His (pET-28b, NcoI-XhoI); chain copies: 2; label: biotin 3'-end; blunt.

B1: lasI promoter (dsDNA)
DNA 1: TGCTCTGATCTTTTCGGACGTTTCTTCGAGCCTAGCAAGGGTCCGGGTTCACCGAAATCTATCTCATTTGCTAGTTATAAAATTATGAAATTTGCATAAATTCTTCAGCTTCCTATTTGGAGGAAGTGAAG
DNA 2: CTTCACTTCCTCCAAATAGGAAGCTGAAGAATTTATGCAAATTTCATAATTTTATAACTAGCAAATGAGATAGATTTCGGTGAACCCGGACCCTTGCTAGGCTCGAAGAAACGTCCGAAAAGATCAGAGCA
Turning to B1, the binding result with RsaL, in the data set with PhoB(D54A) and with PhoB was “binds” each time.

B2: P1 (upstream of pho box) (dsDNA)
DNA 1: TAGCAAGGGTCCGGGTTCACCGAAATCTATCTCATTTGCTA
DNA 2: TAGCAAATGAGATAGATTTCGGTGAACCCGGACCCTTGCTA
Take B2: the binding result in the data set with PhoB is “no binding”.

B3: P3 (downstream of pho box) (dsDNA)
DNA 1: TTGCATAAATTCTTCAGCTTCCTATTTGGAGGAAGTGAAG
DNA 2: CTTCACTTCCTCCAAATAGGAAGCTGAAGAATTTATGCAA
Turning to B3, the binding result with PhoB is listed as “no binding”.

B4: P1+P2 (dsDNA)
DNA 1: TAGCAAGGGTCCGGGTTCACCGAAATCTATCTCATTTGCTAGTTATAAAATTATGAAAT
DNA 2: ATTTCATAATTTTATAACTAGCAAATGAGATAGATTTCGGTGAACCCGGACCCTTGCTA
Regarding B4, the binding result with PhoB was “binds”.

B5: P2+P3 (dsDNA)
DNA 1: GTTATAAAATTATGAAATTTGCATAAATTCTTCAGCTTCCTATTTGGAGGAAGTGAAG
DNA 2: CTTCACTTCCTCCAAATAGGAAGCTGAAGAATTTATGCAAATTTCATAATTTTATAAC
Turning to B5, the binding result with PhoB is reported as “binds”.
